Consider 1 molecule from patent publication US20240301385, “DNA MODIFYING ENZYMES AND ACTIVE FRAGMENTS AND VARIANTS THEREOF AND METHODS OF USE” (LIFEEDIT THERAPEUTICS, INC., published 2024).

The target in this data set is T1, APG30127-L32-nAPG07433.1 (synthetic).
T1 chain: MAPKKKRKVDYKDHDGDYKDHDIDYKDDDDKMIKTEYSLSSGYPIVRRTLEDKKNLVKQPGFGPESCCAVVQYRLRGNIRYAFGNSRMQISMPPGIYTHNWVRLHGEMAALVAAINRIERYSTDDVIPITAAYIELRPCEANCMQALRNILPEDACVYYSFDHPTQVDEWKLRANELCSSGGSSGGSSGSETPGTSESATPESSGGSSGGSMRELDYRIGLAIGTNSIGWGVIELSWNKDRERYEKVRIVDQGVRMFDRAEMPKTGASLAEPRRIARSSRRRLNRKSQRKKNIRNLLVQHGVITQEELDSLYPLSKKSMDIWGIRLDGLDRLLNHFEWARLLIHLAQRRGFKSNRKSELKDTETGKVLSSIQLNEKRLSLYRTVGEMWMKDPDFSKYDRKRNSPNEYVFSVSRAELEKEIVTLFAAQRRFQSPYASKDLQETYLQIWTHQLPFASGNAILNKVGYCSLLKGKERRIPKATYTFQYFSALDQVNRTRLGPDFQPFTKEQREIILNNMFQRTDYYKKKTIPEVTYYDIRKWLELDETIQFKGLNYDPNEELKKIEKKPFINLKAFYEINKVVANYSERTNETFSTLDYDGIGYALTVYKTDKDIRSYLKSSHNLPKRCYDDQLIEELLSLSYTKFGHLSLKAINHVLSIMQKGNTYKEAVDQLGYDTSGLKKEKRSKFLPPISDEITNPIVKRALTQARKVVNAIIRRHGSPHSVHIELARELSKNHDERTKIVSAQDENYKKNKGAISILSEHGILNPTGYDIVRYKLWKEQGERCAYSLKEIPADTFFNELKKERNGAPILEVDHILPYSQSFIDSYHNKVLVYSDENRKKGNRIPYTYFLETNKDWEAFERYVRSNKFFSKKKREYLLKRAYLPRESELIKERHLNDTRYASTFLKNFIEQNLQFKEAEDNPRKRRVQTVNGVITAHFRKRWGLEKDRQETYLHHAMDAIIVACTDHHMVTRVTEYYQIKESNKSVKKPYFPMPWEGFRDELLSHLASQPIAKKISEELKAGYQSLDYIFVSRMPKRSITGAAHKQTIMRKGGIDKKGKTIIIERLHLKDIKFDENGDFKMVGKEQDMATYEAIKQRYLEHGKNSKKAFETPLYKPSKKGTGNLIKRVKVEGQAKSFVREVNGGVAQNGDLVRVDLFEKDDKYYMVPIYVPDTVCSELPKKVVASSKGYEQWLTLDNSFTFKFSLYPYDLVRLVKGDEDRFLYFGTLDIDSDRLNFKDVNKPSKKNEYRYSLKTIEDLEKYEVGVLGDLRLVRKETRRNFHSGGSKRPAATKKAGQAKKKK
Put plainly: cell_activity; HEK293FT; PAM SEQ 152. The following applies: tags: SV40 NLS, 3xFLAG N-term; nucleoplasmin NLS C-term. The gist of the method: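 Editing read out by next-generation sequencing (MiSeq 2×250) of PCR amplicons spanning the target site, analysed for INDELs or % cytosine conversion per position (position 1 nearest PAM).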

B1: SGN000194 sgRNA ; SGN000194 target (ssRNA ; dsDNA)
RNA: GCCGCACAGCAUUCAGGUCGGUCAUAGUUCCAUUAAAGCCAAAAGUGGCUUUGAUGUUUCUAUGAUAAGGGUUUCGACCCGUGGCGUCGGGGAUCGCCUGCCCAUUGAAAUGGGCUUCUCCCCAUUUAUU
DNA 1: GCCGCACAGCATTCAGGTCG
DNA 2: CGACCTGAATGCTGTGCGGC
B1: the activity amounted to 9.53 % mutated reads.
